This note sets out measurements from paper PMC4432651, “Dynamic interplay between catalytic and lectin domains of GalNAc-transferases modulates protein O-glycosylation” (Nature Communications, 2015).

The assay deals with polypeptide N-acetylgalactosaminyltransferase 2 (GalNAc-T2), K75-Q571 (UniProt Q10471). The assay is described as follows: other fluorescence titration; tryptophan fluorescence quenching, 25 °C, GalNAc-T2 at 1 μM, peptides 1 to 500 μM, 25 mM Tris, 150 mM NaCl, pH 7.5; without UDP/Mn+2; single binding site model.
Chain of polypeptide N-acetylgalactosaminyltransferase 2 (GalNAc-T2), K75-Q571 (Q10471 75-571): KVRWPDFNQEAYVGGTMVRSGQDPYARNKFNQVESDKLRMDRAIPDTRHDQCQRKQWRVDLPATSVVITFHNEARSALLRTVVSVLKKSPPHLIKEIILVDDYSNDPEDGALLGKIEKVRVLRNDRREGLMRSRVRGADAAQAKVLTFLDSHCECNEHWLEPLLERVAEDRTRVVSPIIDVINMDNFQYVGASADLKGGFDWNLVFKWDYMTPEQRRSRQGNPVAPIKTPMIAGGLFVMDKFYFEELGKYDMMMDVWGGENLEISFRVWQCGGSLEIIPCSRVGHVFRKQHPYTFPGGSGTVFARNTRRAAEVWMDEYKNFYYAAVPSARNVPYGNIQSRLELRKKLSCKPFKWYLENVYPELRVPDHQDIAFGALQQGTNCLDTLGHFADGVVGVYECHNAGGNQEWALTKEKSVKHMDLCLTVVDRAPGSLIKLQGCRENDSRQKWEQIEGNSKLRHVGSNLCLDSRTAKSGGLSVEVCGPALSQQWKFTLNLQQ

For the substance MUC5AC peptide (naked), the fold change of Kd, without UDP/Mn+2 against with UDP/Mn+2 is 4 fold.
